Patent US11485776B2, “Antibodies against infectious diseases” (priority 2015, dated 2022)
“Also recorded” adds a separate entry of the source.

Tests used:
CaENO1 = target: T1, CaENO1 (Candida albicans, UniProt P30575); format: binding, C. albicans
T1 construct: using full-length CaENO1 (1323 bp) as template; His (N); made in house; host or cells: E. coli BL21
Method: (A) Purified CaS1 scFv was used to recognize recombinant CaENO1 protein. The CaS1 scFv were used as primary antibody with series dilution. The goat anti-chicken light chain IgG was used as secondary antibody. The HRP conjugated donkey anti-goat IgG was used to decet. (B) OD value was calculated into percentage. […] The goat anti-chicken light chain IgG was used as secondary antibody. The HRP conjugated donkey anti-goat IgG was used to detect. (D) We calculated OD value into percentage.
The goat anti-chicken light chain IgG was used as secondary antibody. The HRP conjugated donkey anti-goat IgG was used to decet. (B, D) OD value was calculated into percentage. […] ELISA data were represented as mean±SD of the duplicated well.
After vigorous washings, the bound IgY antibodies were detected by adding HRP-conjugated polyclonal donkey anti-chicken IgY antibodies (1:3,000) (Bethyl Laboratories, Montgomery, Tex., USA) while the bound CaS1 scFv antibodies were detected by goat anti-chicken light chain antibodies (1:3,000) (Bethyl Laboratories, Montgomery, Tex., USA), followed by HRP-conjugated donkey anti-goat IgG antibodies (Jackson ImmunoResearch, USA). After washing as above, a tetramethylbenzidine (TMB) substrate solution (Sigma, USA) was added to the wells for color development. The reaction was stopped with 1 N HCl and optical density was measured at 450 nm using an ELISA plate reader (BioTek Synergy HT). Dissociate constant (KD) was calculated according to the equation, grams/molecular weight (Da)×volume (L)^−1.
The goat anti-chicken light chain IgG was used as secondary antibody. The HRP conjugated donkey anti-goat IgG was used to decet (see FIGS. 14 (A) and (C)). OD value was calculated into percentage. […] ELISA data were represented as mean±SD of the duplicated well (see FIGS. 14 (B) and (D)).

hENO1 = target: T2, hENO1 (Homo sapiens, UniProt P06733); experiment: Western blot on purified human ENO1 protein; format: binding
T2 construct: His; made in house; host or cells: E. coli BL21 (by 'in the same way')
T2 sequence (P06733 whole entry): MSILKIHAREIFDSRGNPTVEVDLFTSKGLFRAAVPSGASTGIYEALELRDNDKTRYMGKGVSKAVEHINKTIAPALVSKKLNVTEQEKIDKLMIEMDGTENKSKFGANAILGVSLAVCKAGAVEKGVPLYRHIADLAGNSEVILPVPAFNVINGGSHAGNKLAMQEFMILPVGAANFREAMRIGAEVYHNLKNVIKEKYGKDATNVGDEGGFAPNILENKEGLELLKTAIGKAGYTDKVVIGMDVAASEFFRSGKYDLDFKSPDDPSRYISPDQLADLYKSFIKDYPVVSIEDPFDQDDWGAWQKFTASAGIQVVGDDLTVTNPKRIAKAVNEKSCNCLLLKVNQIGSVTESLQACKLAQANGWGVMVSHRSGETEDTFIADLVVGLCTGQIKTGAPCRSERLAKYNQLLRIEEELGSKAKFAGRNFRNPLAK
Text: Lane M contained protein markers.
The ImageQuant LAS4500 was used for ECL intensity detection.

C. albicans [1] = experiment: Flow cytometry of C. albicans, propidium iodide cell death; format: cell-based, C. albicans SC 5314; details: 100 ug antibody, 10^5 cells, 2 hours at 37° C.
Method: (A) C. albicans SC 5314 were cultured overnight and 10^5 cells were added to each tube with 2 ml YPD medium. Experiment antibodies were added to each tube (1) Anti-CaENO1 IgY (100 ug) (2) Control scFv (100 ug) (3) scFv CaS1 (100 ug) (4) PBS, and cultured 2 hours at 37° C. in an incubator. Goat anti-chicken light chain (1:1500) antibody was used as detected antibody; FITC donkey anti-goat antibody (1:1000) was used as developed antibody to detect the reaction. Propidium iodide (PI) (1 ug/ml) was used to detect cell death. (B) Quantification of flow cytometry result in the panel A (*, p<0.05;**, p<0.01). Flow cytometry is represented as mean±SD of the duplicated experiment.
Anti-CaENO1 IgY, scFv CaS1 and control scFv were contacted with C. albicans and then subjected to flow cytometry assay. Anti-CaENO1 IgY, scFv CaS1 and control scFv show 89.7+/−2.8%, 46.64+/−3.1% and 23+/−2.3% FITC fluorescence reaction (FIG. 7A), representing that the antibody can bind to alpha-enolase on the surface of C. albicans.

C. albicans [2] = experiment: C. albicans growth on YPD agar plate; format: cell-based; details: 0.5 mg/ml antibody pre-incubated 1 hr, 10x dilutions spotted
Method: (A) C. albicans were cultured in YPD medium overnight at 37° C. 10^8 cfu/ml of C. albicans was mixed with equal volume of 0.5 mg/ml anti-CaENO1 IgY, 0.5 mg/ml CaS1 scFv or 1×PBS, respectively, at room temperature for 1 hr. 1 ul of each mixture in 10× dilutions was spotted on YPD agar plate and incubated at 37° C. overnight. (B) 10^3 cfu of C. albicans was mixed with PBS (control), 10 or 100 µg/ml CaS1 scFv at room temperature for 1 hr. 1 ul of each mixture was spotted on YPD agar plate and incubated at 37° C. for 5 days. The hyphal formation was observed under the microscope.
To determine the effect of scFv antibodies on the cell growth and hyphal formation, anti-CaENO1 IgY (0.5 mg/ml) or CaS1 scFv (0.5 mg/ml) or PBS were pre-incubated with C. albicans (1×10^6 cfu) for 1 hr at 37° C. After incubation, 1 ul of each mixture in 10-fold dilutions was spotted on YPD agar plate and incubated at 37° C. overnight. 10^3 cfu of C. albicans was mixed with 0 (1×PBS control), 10 or 100 µg/ml CaS1 scFv at room temperature for 1 hr. Thereafter, 1 ul of each mixture was spotted on YPD agar plate and incubated at 37° C. for 5 days. […].
We evaluated the influence of CaS1 on growth of C. albicans, we pre-incubated CaS1 scFv with C. albicans and plated on the agar.

[3] = target: T3, CaENO1 binding to plasminogen (Candida albicans, UniProt P30575); experiment: Fibrin matrix-gel degradation with CaENO1 on Ni sepharose; format: biochemical, C. albicans; details: antibody 100 ug; for Binding of CaENO1 to plasminogen: CaENO1 on Ni sepharose
T3 construct: using full-length CaENO1 (1323 bp) as template; made in house; host or cells: E. coli BL21
T3 sequence (P30575 whole entry): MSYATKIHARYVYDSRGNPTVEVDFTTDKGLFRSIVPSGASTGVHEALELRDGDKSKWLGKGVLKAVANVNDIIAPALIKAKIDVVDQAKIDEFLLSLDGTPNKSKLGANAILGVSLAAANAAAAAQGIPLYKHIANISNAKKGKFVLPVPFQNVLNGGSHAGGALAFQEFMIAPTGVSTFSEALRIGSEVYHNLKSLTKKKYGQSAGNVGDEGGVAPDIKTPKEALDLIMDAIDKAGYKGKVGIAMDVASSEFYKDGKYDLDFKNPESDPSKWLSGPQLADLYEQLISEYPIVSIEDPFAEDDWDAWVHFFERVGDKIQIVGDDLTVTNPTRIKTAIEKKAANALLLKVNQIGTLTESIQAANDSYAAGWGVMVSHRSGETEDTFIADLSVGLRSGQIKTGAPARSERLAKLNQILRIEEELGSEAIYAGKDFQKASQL
Method: Each experimental group of CaENO1 with CaS1 scFv were dropped onto gel and incubated at room temperature for 2 days to observe gel degrade result. (1) plasminogen (1 ug/ul) only. (2) CaENO1 on Ni Sepharose™ (10 ug). (3) CaENO1 on Sepharose™ (10 ug) with plasminogen (20 ug).
Each experimental group of CaENO1 with CaS1 scFv were dropped onto gel and incubated at room temperature for 2 days to observe gel degrade result an the results are shown in FIG. 15.

T1 sequence (P30575 whole entry): as above

B1: CaS1 scFv: anti-CaENO1 scFv monoclonal antibody from chicken phage library; light chain SEQ ID NO:11, heavy chain SEQ ID NO:12 (antibody, V domains shown)
VH: TVTLDESGGGLQTPRGALSLVCKASGFTFIDYGMQWVRQAPGKGLEWVAGIGSSGSSTNYGAAVKGRATISRDDGQSTVRLQLNNLRAEDTGTYYCAKSAGGYCVNGAGCNGGSIDAWGHGTEVIVSS
VL: ALTQPSSVSANLGGTVKITCSGGSGSYGWYQQKSPGSAPVTVIYSNNQRPSNIPSRFSGSPSGSTGTLTITGVQADDEAVYFCGSRDSSYVGVFGAGTTLTVL
modifications: scFv linker; amino acid sequence comprised in a heavy chain of an anti-CaENO1 scFv monoclonal antibody (CaS1); amino acid sequence comprised in a light chain of an anti-CaENO1 scFv monoclonal antibody (CaS1)
CaENO1
  Binding activity to recombinant CaENO1 on ELISA: concentration dependent
CaENO1; recombinant CaENO1 coated, KD or EC50 from OD percentage
  KD by ELISA: 0.498 µg/mL
CaENO1; recombinant CaENO1 coated, KD or EC50 from OD percentage, read-out: KD by ELISA
  Kd: 18.8 nM
hENO1
  Binding to purified hENO1 (Western blot): very little; also recorded: weak cross reactivity
C. albicans [1]
  mortality rate of C. albicans (propidium iodide): 37+/−0.8%
C. albicans [2]
  C. albicans growth on YPD agar plate: decreased C. albicans growth
C. albicans [2]; listed as CaS1
  C. albicans growth on YPD agar plate: attenuated the growth
[3]; CaENO1 10 ug, plasminogen 20 ug, 2 days
  Fibrinolytic activity of CaENO1 on Sepharose with plasminogen: no fibrinolytic activity
[3]
  Binding of CaENO1 to plasminogen: significantly reduced
[3]; listed as CaS1
  Binding of CaENO1 to plasminogen: inhibits
